According to doi:10.1101/790667 (bioRxiv, 2019):
* marks the point of attachment. Dansyl = CN(C)c1cccc2c(S(=O)(=O)*)cccc12

T1: human CASK PDZ domain (residues 487-572) (human, UniProt O14936 487-572)
T1 sequence (looked up): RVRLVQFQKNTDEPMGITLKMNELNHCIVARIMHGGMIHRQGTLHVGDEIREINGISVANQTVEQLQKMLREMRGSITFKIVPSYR

B1: Neurexin peptide (residues 1,470-1,477) (peptide)
peptide: Dansyl-NKDKEYYV-OH
SMILES: CC(C)[C@H](NC(=O)[C@H](Cc1ccc(O)cc1)NC(=O)[C@H](Cc1ccc(O)cc1)NC(=O)[C@H](CCC(=O)O)NC(=O)[C@H](CCCCN)NC(=O)[C@H](CC(=O)O)NC(=O)[C@H](CCCCN)NC(=O)[C@H](CC(N)=O)NS(=O)(=O)c1cccc2c(N(C)C)cccc12)C(=O)O
B2: Caspr4 peptide (residues 1,301-1,308) (peptide)
peptide: Dansyl-ENQKEYFF-OH
SMILES: CN(C)c1cccc2c(S(=O)(=O)N[C@@H](CCC(=O)O)C(=O)N[C@@H](CC(N)=O)C(=O)N[C@@H](CCC(N)=O)C(=O)N[C@@H](CCCCN)C(=O)N[C@@H](CCC(=O)O)C(=O)N[C@@H](Cc3ccc(O)cc3)C(=O)N[C@@H](Cc3ccccc3)C(=O)N[C@@H](Cc3ccccc3)C(=O)O)cccc12
B3: Syndecan1 peptide (residues 303-310) (peptide)
peptide: Dansyl-TKQEEFYA-OH
SMILES: C[C@H](NC(=O)[C@H](Cc1ccc(O)cc1)NC(=O)[C@H](Cc1ccccc1)NC(=O)[C@H](CCC(=O)O)NC(=O)[C@H](CCC(=O)O)NC(=O)[C@H](CCC(N)=O)NC(=O)[C@H](CCCCN)NC(=O)[C@@H](NS(=O)(=O)c1cccc2c(N(C)C)cccc12)[C@@H](C)O)C(=O)O

What follows are binders tested against T1, human CASK PDZ domain (residues 487-572) (assay: differential scanning fluorimetry).

Binding result, binds:
B1
B2
B3
